Consider one protein from paper PMC5004899, “Architecture of the caveolar coat complex” (Journal of Cell Science, 2016).

The series concerns the molecule itself. The series can be described thus: cross-linking; DSP cross-linking in live HeLa cells; purified 80S-CCC; partial reduction of DSP crosslinks by titration of DTT; western blots. Background: Immunoblotting shows a protein as a band on a membrane.

B1: cavin-1 (natural protein, human (endogenous in HeLa), UniProt Q6NZI2-1 1-390, looked up)
chain: MEDPTLYIVERPLPGYPDAEAPEPSSAGAQAAEEPSGAGSEELIKSDQVNGVLVLSLLDKIIGAVDQIQLTQAQLEERQAEMEGAVQSIQGELSKLGKAHATTSNTVSKLLEKVRKVSVNVKTVRGSLERQAGQIKKLEVNEAELLRRRNFKVMIYQDEVKLPAKLSISKSLKESEALPEKEGEELGEGERPEEDAAALELSSDEAVEVEEVIEESRAERIKRSGLRRVDDFKKAFSKEKMEKTKVRTRENLEKTRLKTKENLEKTRHTLEKRMNKLGTRLVPAERREKLKTSRDKLRKSFTPDHVVYARSKTAVYKVPPFTFHVKKIREGQVEVLKATEMVEVGADDDEGGAERGEAGDLRRGSSPDVHALLEITEESDAVLVDKSDSD
modifications: DSP-modified lysine residues (seven of 11 lysines in the HR1 domain, six of 17 in the HR2 domain; marked in Fig. 1D)
notes: human cavin-1 (PTRF), NP_036364.2; HR1 domain amino acids 49-163, HR2 domain amino acids 210-300; Detected with rabbit anti-PTRF (Abcam ab48824); also called PTRF; source: endogenous, HeLa lysate (cells DSP-cross-linked alive)
As for B1, the “stoichiometry N” value is 3.

What is called stoichiometry N is a count of units in the complex or per binding partner.
